Reference: article PMC2779898

Tests used:
Assay in all cases: EMSA
PF1142 = molecular target: T1, PF1142 (Pyrococcus furiosus, UniProt Q8U1R3 1-280)
T1 sequence: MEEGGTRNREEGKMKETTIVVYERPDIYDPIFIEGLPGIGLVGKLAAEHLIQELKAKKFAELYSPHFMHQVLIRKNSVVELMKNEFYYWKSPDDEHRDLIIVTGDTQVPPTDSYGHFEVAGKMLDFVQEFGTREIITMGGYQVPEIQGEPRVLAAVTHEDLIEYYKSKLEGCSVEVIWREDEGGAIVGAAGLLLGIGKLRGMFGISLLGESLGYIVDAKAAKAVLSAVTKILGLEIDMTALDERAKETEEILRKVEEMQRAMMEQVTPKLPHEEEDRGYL

PF1488 = molecular target: T2, PF1488 (Pyrococcus furiosus, UniProt Q8U0U4 1-222)
T2 sequence: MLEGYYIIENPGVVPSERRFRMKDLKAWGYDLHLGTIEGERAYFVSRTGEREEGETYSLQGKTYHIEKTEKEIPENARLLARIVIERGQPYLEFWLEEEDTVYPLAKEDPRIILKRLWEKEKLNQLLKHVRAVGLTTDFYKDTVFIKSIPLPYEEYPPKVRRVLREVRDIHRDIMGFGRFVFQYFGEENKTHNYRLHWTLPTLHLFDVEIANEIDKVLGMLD

PF0547 = molecular target: T3, PF0547 (Pyrococcus furiosus, UniProt Q8U3C3 1-448)
T3 sequence: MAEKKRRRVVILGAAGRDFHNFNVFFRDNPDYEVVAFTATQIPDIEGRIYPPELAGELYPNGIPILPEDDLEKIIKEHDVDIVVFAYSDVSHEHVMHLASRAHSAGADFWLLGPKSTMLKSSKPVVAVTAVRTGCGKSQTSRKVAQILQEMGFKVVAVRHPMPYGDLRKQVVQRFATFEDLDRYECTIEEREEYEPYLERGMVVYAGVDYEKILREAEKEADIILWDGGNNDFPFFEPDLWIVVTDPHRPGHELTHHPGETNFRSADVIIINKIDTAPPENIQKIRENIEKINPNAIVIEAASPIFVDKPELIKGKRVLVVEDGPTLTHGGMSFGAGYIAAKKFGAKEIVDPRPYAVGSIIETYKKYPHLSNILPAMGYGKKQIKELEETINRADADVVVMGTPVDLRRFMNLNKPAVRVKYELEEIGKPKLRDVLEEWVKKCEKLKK

PF1913 = molecular target: T4, PF1913 (Pyrococcus furiosus, UniProt Q8TZS1 1-157)
T4 sequence: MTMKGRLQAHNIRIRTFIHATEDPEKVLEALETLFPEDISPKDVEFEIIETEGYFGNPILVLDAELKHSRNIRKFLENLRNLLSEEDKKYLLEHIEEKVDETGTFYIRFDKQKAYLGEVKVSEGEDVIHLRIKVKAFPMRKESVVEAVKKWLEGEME

Measured: binding result

GAAACAAGGAGAAAUGGUUCGUGUCCU (structured_RNA) [MPOR-27]
no binding: all assays above
